# Measurements from the nanobody polyreactivity screen of Harvey et al. (2022).
# Experiment: yeast display, Sf9 membrane polyspecificity reagent, FACS + sequencing; frameworks hold sequencing errors
# Summary of the method: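 Synthetic nanobody libraries on Saccharomyces cerevisiae BJ5465 were galactose-induced for 36–48 hours, stained 1 hour at 4 °C with 10% biotinylated, detergent-solubilized Sf9 membrane reagent and enriched on streptavidin microbeads. FACS then separated cells into low and high (top ~1%) gates by anti-HA (expression) and streptavidin (reagent binding) fluorescence. Genes were colony-PCR amplified, MiSeq 2 × 250 sequenced and CDR-length filtered. A clone's polyreactivity label is that of its gate of origin.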
row,Sequence,polyreactivity (PSR sort gate)
1,QVQLVESGGGLVQAGGSLRLSCAASGSILAIYAMGWYRQAPGKERELVAAITWSGDSTYYADSVKGRFTISRDNAKNTVYLQMNSLKPEDTAVYYCAAGPGYWYEHEYWGQGTQVTVSS,low polyreactivity
2,QVQLVESGGGLVQAGGSLRLSCAASGSILALYTMGWYRQAPGKEREFVATITSSDGSTYYADSVKGRFTISRDNAKNTVYLQMNSLKPEDTAVYYCNARGSVYYLKFDYWGQGTQVTVSS,low polyreactivity
3,QVQLVESGGGLVQAGGSLRLSCAASGSILAYNAMGWYRQAPGKEREFVAAITGGVGSTYYADSVKGRFTISRDNAKNTVYLQMNSLKPEDTAVYYCAKRTYHEYNNQFVKYYYWGQGTQVTVSS,high polyreactivity
4,QVQLVESGGGLVQAGGSLRLSCAASGSILAYNAMGWYRQAPGKERELVASISKSGSSTYADSVKGRFTISRDNAKNTVYLQMNSLNPEDTAVYYCNARYYFSYYAFDYWGQGTQVTVSS,low polyreactivity
5,QVQLVESGGGLVQAGGSLRLSCAASGSILDFNAMGWYRQAPGKERELVAAISDSSGSTFYAVSVKGRFTISRDNAKNTVYLLMISLKPEDTAVYYCAARLGFYPYGYTSWYTVYFWGQGTQVTVSS,low polyreactivity
6,QVQLVESGGGLVQAGGSLRLSCAASGSILDPNAMGWYRQAPGKESELVANITNGGRTNFADSVKGRFTISRDNAKNTVYFQMNRLKPEDTAVYYCAKDSTFNSVTVLAPIIYDSWGQATQVTVSS,low polyreactivity
7,QVQLVESGGGLVQAGGSLRLSCAASGSILESNVMGWYRQAPGKERELVASISSSGDSTYADSVKGRFTISRDNAKNTVYLQMNSLKPEDTAVYYCNADRTQDRNPYTYATFDYWGQGTQVTVSS,low polyreactivity
8,QVQLVESGGGLVQAGGSLRLSCAASGSILESNVMGWYRQAPGKERELVASISSSGDSTYADSVKGRFTISRDNAKNTVYLQMNSLKPEDTEVYYCAADRWYWTYALYYWGQGTQVTVSS,low polyreactivity
9,QVQLVESGGGLVQAGGSLRLSCAASGSILFHYAMGWYRQAPGKERELVAAISRRGGSTYYADSVKGRFTISRDNAKNTVYFQMNSLKPEDNAVYYCAKYPSAYVDSDVTYDMDYWGQGTQVTVSS,low polyreactivity
10,QVQLVESGGGLVQAGGSLRLSCAASGSILGSNAMGWYRQPPGKESEFVAAITTITGSTYYADSVKGRFTISRDNAKNTVYLEMNSLKPEDTAVYYCNADAHESTDYTLYFSGPYYYWGQGTQVTVSS,low polyreactivity
11,QVQLVESGGGLVQAGGSLRLSCAASGSILGTNAMGWYRQAPGKESELVAAINYSGGNTYYADSVKGRFTISRDNAKNTVYLQMNSLKPEDTAVYYCAAVNGWRRVKRFDYWGQGTQVTVSS,high polyreactivity
12,QVQLVESGGGLVQAGGSLRLSCAASGSILGTYAMGWYRQAPGKVRELVAAISSSGRTSYADSVKGRFTISRDNAKNTGYLQMNSLKPEDTAVYYCNASNYIVLINDPYAAPWLYDYWGQGTQVTVSS,low polyreactivity
13,QVQLVESGGGLVQAGGSLRLSCAASGSILGVNVMGWYRQAPGKERELVAAISLSSSRTNYADSVKGRFTISRDNAKNTVYLQMNSLKPVDTAVYDCASAVRPGYARPYTSWGQGTQVTVSS,high polyreactivity
14,QVQLVESGGGLVQAGGSLRLSCAASGSILGVYTMGWYRQAPGKERELVAAITSSSSSTYADSVKGRFTISRDNAKNTVYLQMNSLKPEDTAVYYCATRGWSKQLYGGYTQYYYWGQGTQVTVSS,high polyreactivity
15,QVQLVESGGGLVQAGGSLRLSCAASGSILGYYAMGLYRQAPGKERELVAAISGRGGSTYYADSLKGRFTISRDNAKNTVYLQMNSLKPEDTAVYYCAKRSVWRGWGQGTQVTVSS,high polyreactivity
16,QVQLVESGGGLVQAGGSLRLSCAASGSILGYYAMGWYRQAPGKERELVAANTASGGSTYYADSVKGRFTISRDNAKNTVYLQMNSLKPEDTAVYYCAAQYYATYGYWGQGTQVTVSS,low polyreactivity
17,QVQLVESGGGLVQAGGSLRLSCAASGSILHLYAMGWYRQAPGKERELVARINSGGTTNYADSVKGRFTISRDNAKNTVYLQMNSLKPEDTAVYYCAARFTPYITSDDGHYDYWGQGTQVTVSS,low polyreactivity
18,QVQLVESGGGLVQAGGSLRLSCAASGSILHPNGMGWYRQAPGKERELVAAITINGDSTYYADSVKGRFTISRDNAKNTVYLQMNSLKPEDTAVYYCAVDGWPTGWYYYWGQGTQVTVSS,low polyreactivity
19,QVQLVESGGGLVQAGGSLRLSCAASGSILHPNGMGWYRQAPGKERELVAAITINGDSTYYADSVKGRFTISRDNAKNTVYLQMNSLKPEDTAVYYFAVDGWPTGWYYYWGQGTQVTVSS,low polyreactivity
20,QVQLVESGGGLVQAGGSLRLSCAASGSILHPNGMGWYRQATGKERELVAAITINGDSTYYADSVKGRFTISRDNAKNTVYLQMNCLKPEDTAVYYCAVDGWPTGWYYYWGHGTQVTVSS,low polyreactivity

row,Sequence,polyreactivity (PSR sort gate)
1,QVQLVESGGGLVQAGGSLRLSCAASGSILKGYTMGWYRQAPGKERELVAAITQTDNSTNYADSVKGRFTISRDNAKNTVYLQMNSLKPEDTAVYYCAASQLEFRRAFYYWGQGTQVTVSS,low polyreactivity
2,QVQLVESGGGLVQAGGSLRLSCAASGSILKPYAMGWYRQAPGKERELVARISSSGGRTYYADSVKGRFTISRDNAKNTFYFKMNSLKPEDTAVYYFAAAIVSYGRNDYWGQGTQVTVSS,high polyreactivity
3,QVQLVESGGGLVQAGGSLRLSCAASGSILKSNAMGWYRQAPGKERELVAAITYRDGSTYYADSVKGRFTISRDNAKNTVYLQMNSLKAEDTAVYYCAAEPSWWNVFYPGYNYWGQGTQVTVSS,high polyreactivity
4,QVQLVESGGGLVQAGGSLRLSCAASGSILLINAMGWYRQAPGKERELVAAIRTGGSTYYADSVKGRFTISRDNAKNTVYLQMNSLKPEDTAVYYCAVRTGRRWWKFDYWGQGTQVTVSS,low polyreactivity
5,QVQLVESGGGLVQAGGSLRLSCAASGSILLIYAMGWYRQAPGKERELVAGITRGGSTNYADSVKGRFTISRDNAKNTVYLQMNSLKPEDTAVYYCASDGGPARYLVSDRDYWGQGTQVTVSS,low polyreactivity
6,QVQLVESGGGLVQAGGSLRLSCAASGSILLVYAMGWYRPAPGKERELVAAIRWSGGSTYYADSVKGRFTISRDNAKNTVYLQMNSLKPEDTAVYYCNAGESYSVKGGPYDSDYWGQGTQVTVSS,low polyreactivity
7,QVQLVESGGGLVQAGGSLRLSCAASGSILLYYAMGGSRPAPGKERQLVAAITCSGGSTYYADSVKGRFTISRDNAKNTDYLQMNSQKPEDTAVYYCNAVTDRAGSDYDSWGQGTQVTVSS,low polyreactivity
8,QVQLVESGGGLVQAGGSLRLSCAASGSILNNYAMGWYRQAPGKERELVAAISSSGGTNYADSVKGRFKISRDNAKNTVYLQMNSLKPEDTAVYYCAKESLYQYDYWGQGTQVTVSS,low polyreactivity
9,QVQLVESGGGLVQAGGSLRLSCAASGSILPGNAMGWSRQAPGKERELVAAITYSGGSTYADSVKGRFTISRDNAKNTVYLQINSLKPEDTAVYYCNADFIDPSVYDYNYWGQGTQVTVSS,low polyreactivity
10,QVQLVESGGGLVQAGGSLRLSCAASGSILQRNAMGWYRQAPGKERELVAAISWSGDNTYYADSVKGRFTISRDNAKNTVYLQMNSLKPEDTAVYYCATDADIYFQEYDYWGQGTQVTVSS,low polyreactivity
11,QVQLVESGGGLVQAGGSLRLSCAASGSILQSYAMGWSRQAPGKERELGAALSGSGGSTYYADSVKGRFTISRDNAKNTVYLQMNSLKPEDTAVYYCAKGPLYRTSRGEFGYWGQGTQVTVSS,low polyreactivity
12,QVQLVESGGGLVQAGGSLRLSCAASGSILQSYAMGWYRQAPGKERELVAAITYRGGRTYYADSVKGRFTISRDNAKNTVYLQMNSLKPEDTAVYYCAADQQRSIDAPYGYWGQGTQVTVSS,low polyreactivity
13,QVQLVESGGGLVQAGGSLRLSCAASGSILRLYAMGWYRQAPGKERELVAAISSGGSTYYADSVKGRFPISRDNAKNTVYLQMNSLKPEDTAVYYCAAGVFWSWRYAYDYWGKGTQVTVSS,low polyreactivity
14,QVQLVESGGGLVQAGGSLRLSCAASGSILRQYAMGWYRQAPGKERELVATISRSGGSKYYADSVKGRFTISRDNAKNTVYLQMNSLKPEDTAVYYCAASRYNKSYREWWVGSWGQGTQVTVSS,high polyreactivity
15,QVQLVESGGGLVQAGGSLRLSCAASGSILRSYAMGWYRQAPGKERELVAVINGSGGRTYYADSVKGRFTISRDNAKNTVYLQMNSLKPEDTAVYYCNKRYRFTGIRDPFDYWGQGTQVTVSS,low polyreactivity
16,QVQLVESGGGLVQAGGSLRLSCAASGSILRSYAMGWYRQAPWKERELVAVINGSGGRTYYADSVKGRFTISRDIAKNTVYLQMNSLKPEDTAVYYCNADPGGRYPRRGYAHEGDYWGQGTQVTVSS,low polyreactivity
17,QVQLVESGGGLVQAGGSLRLSCAASGSILRVNAMGWYRQAPGKEREVVAAISSGGITNYADSVKGALHNFTRQCEEYRLFTDEQPETGTYRGQFCARTYRNPASAGSLVVRYPYDYWGQGTQVTVTS,low polyreactivity
18,QVQLVESGGGLVQAGGSLRLSCAASGSILRYYAMGWYRQAPGKERELVADISTSGGSTYYADSVKGRFTISRDNAKNTFDLQMISLKPEDTAVYYCASAYYRYLIYIGKFDYWGQGTQVTVSS,high polyreactivity
19,QVQLVESGGGLVQAGGSLRLSCAASGSILSGYAMGWYRQAPGTERELVAAINDGGGTNYADSVKGRFTISRDNAKNTVYLQMKSLKPEDTAVYYCAAEQSVSFLVFTGVKFDYWGQGTQVTVSS,low polyreactivity
20,QVQLVESGGGLVQAGGSLRLSCAASGSILSLNGMGWYRQAPGKERELVAVIRSGGSTYYADSVKGRFTISRDNAKNTVYLQMNSLKPEDTAVYYCNAQDYLTTVPDPEYDYWGQGTQVTVSS,low polyreactivity
